Results: patent publication US20250340613A1 (JOINT STOCK COMPANY BIOCAD, published 2025)
Blank lines part the entries; values can stand above or below the binder they belong to.

Tests used:
[1] = target: T1, extracellular domain of the human CSF1R protein (hCSF1R_His) (Homo sapiens, UniProt P07333 20-512); assay: BLI Octet RED 384; antibody on ProA sensor, antigen in solution; 1:1 global fit
T1 construct: range 20-512; Molecular weight 57.4 kDa; made in CHO cells; also called hCSF1_His; not shown: C-terminal His and FLAG tags
Method: The experiments were carried out using a kinetic buffer solution (hereinafter referred to as 1×KB) having the following formulation: 4.3 mM Na₂HPO₄; 136.9 mM NaCl, 1.5 mM KH₂PO₄; 2.7 mM KCl; the volume fraction of the added Tween 20 was 0.1%; the mass fraction of the added BSA (bovine serum albumin) was 0.1%; pH 7.4. Before the measurement, the ProA sensors were regenerated with a solution of 50 mM glycine and hydrochloric acid, pH 1.8 (5 seconds in the regenerating solution, 5 seconds in 1×KB, three repetitions). In the case of the hPD1ex-H6F and hCSF1R_His antigens, the Protein A (ProA) biosensors (ForteBio) were immersed in a solution with antibodies at a concentration of 10 μg/ml for 60 seconds to immobilize same. The baseline was recorded in 1×KB for 60 seconds. The sensors loaded with the antibody were then immersed into wells containing a solution of the target antigen (analyte) in a kinetic buffer for 90 seconds. Measurements were performed for solutions with hPDlex-H6F analyte at concentrations of 2.50 μg/ml (121.4 nM), 1.25 μg/ml (60.7 nM), 0.625 μg/ml (30.35 nM). […] Then we detected complex dissociation in 1×KB for 210 s for hPDlex-H6F, 300 s for hCSF1R_His.
(§1) All measurements were carried out at 30° C., orbital mixing speed was 1,000 revolutions per minute.
(§2) To obtain numerical values of kinetic constants (kₒₙ is the on/association rate constant, kdis is the dissociation rate constant, KD is the equilibrium dissociation constant or affinity constant), the resulting sensograms were processed according to the 1:1 interaction model using Global Fit (selection of one set of kon, kdis, KD constants to analyze several sensograms of different concentrations) of the ForteBio Octet Data Analysis 9.0 software.

[2] = target: T2, biotinylated peptide [NH2]…JQS[CH2CH2]biotin comprising a fragment of the human CD20 sequence (human, [NH2] at the N-terminus; [CH2CH2]biotin at the C-terminus; the letter J at position 20 is printed so and is not a standard residue code); assay: BLI Octet RED 384; biotinylated peptide on SAX sensor, antibody in solution; 1:1 global fit
T2 construct: also called CD20 peptide
Method: In the case of the biotinylated CD20 peptide, the peptide at a concentration of 5 μg/ml was immobilized on the surface of SAX sensors (High Precision Streptavidin (SAX) biosensors, ForteBio) for 120 seconds. The baseline was recorded in a 1×KB solution for 120 seconds. The sensors containing the loaded peptide were immersed into wells containing the antibody solution (analyte) in 1×KB for 15 seconds. Measurements were carried out for solutions with analyte (antibodies in the case of CD20 peptide) at concentrations of 150 μg/ml, 75 μg/ml, 37.5 μg/ml. Complex dissociation was recorded in 1×KB for 120 seconds.
as §1, §2

[3] = target: T1, extracellular domain of the human CSF1R …; assay: BLI Octet RED 384; antibody on ProA sensor, antigen 30 ug/ml
[4] = target: T3, hIL4R-His, Interleukin-4 receptor subunit alpha (Homo sapiens) aa 27-227 (Homo sapiens, UniProt P24394 27-227); assay: as above
T3 construct: range 27-227; not shown: His tag as the name implies
T3 sequence (looked up): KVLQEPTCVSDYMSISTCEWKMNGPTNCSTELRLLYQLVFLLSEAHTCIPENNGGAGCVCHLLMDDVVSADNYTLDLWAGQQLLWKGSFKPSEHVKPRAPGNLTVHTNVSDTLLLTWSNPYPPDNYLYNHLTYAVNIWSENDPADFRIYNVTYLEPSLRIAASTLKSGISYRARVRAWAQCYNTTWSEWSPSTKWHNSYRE

T1 sequence (P07333 20-512 limits assumed): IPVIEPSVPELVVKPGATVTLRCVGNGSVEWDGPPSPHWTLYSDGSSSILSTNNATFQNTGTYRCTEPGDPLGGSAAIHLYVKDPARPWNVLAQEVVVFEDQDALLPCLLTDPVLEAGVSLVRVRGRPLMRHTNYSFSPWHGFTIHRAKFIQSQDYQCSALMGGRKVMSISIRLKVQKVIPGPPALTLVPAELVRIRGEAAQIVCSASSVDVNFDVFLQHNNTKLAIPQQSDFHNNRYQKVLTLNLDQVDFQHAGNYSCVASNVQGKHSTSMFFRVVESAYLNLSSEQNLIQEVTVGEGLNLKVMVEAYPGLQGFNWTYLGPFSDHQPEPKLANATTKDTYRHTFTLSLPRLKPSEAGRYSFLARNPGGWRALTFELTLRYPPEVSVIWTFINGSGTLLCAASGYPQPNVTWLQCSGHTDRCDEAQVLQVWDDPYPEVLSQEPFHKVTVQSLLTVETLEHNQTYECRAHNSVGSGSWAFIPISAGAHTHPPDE
T2 sequence (peptide, as listed by the source): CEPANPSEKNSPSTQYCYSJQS

Kd [1]: 0.42 nM | koff [1]: 0.00021 s⁻¹ | kon [1]: 500000 M⁻¹ s⁻¹ | Kd [2]: 820 nM | koff [2]: 0.177 s⁻¹ | kon [2]: 216000 M⁻¹ s⁻¹
B1: 02-009, bivalent bispecific chimeric antibody that specifically binds to CD20 and CSF1R (bispecific antibody, human IgG1, kappa, L234A L235A)
heavy 1: QVQLVESGGGLVRPGGSLRLSCAASEFTFDDYAMSWVRQAPGKGLEWVSAISWNGGSTNYADSVKGRFTISRDNAKNSLYLQMNSLRAEDTALYYCASTVEVAHRRLYKYLEVWGQGTLVTVSSASTKGPSVFPLAPSSKSTSGGTAALGCLVKDYFPEPVTVSWNSGALTSGVHTFPAVLQSSGLYSLSSVVTVPSSSLGTQTYICNVNHKPSNTKVDKRVEPKSCDKTHTCPPCPAPEAAGGPSVFLFPPKPKDTLYITREPEVTCVVVDVSHEDPEVKFNWYVDGVEVHNAKTKPREEQYNSTYRVVSVLTVLHQDWLNGKEYKCKVSNKALPAPIEKTISKAKGQPREPQVCTLPPSRDELTKNQVSLSCAVKGFYPSDIAVEWESNGQPENNYKTTPPVLDSDGSFFLVSKLTVDKSRWQQGNVFSCSVMHEALHNHYTQKSLSLSPGK
light 1: QAGLTQPPSVSVAPGQTARITCGGNNIGSKSVHWYQQKPGQAPVLVVYGDSDRPSGIPERFSGSNSGNTATLTISRVEAGDEADYYCQVWDISSDHVVFGGGTQLTVLRTVAAPSVFIFPPSDEQLKSGTASVVCLLNNFYPREAKVQWKVDNALQSGNSQESVTEQDSKDSTYSLSSTLTLSKADYEKHKVYACEVTHQGLSSPVTKSFNRGEC
heavy 2: not shown
light 2: DIQMTQSPSSLSASVGDRVTITCRASSSVSYMHWYQQKPGKAPKPLIYAPSNLASGVPSRFSGSGSGTDFTLTISSLQPEDFATYYCQQWSFNPPTFGQGTKVEIKQRQVKPEAWLSSGPSPGPGRLQLVCHVSGFYPKPVWVMWMRGEQEQQGTQLGDILPNANWTWYLRATLDVADGEAAGLSCRVKHSSLEGQDIILYWRGSC
notes: Produced in CHO cells

binding result [3]: no binding (tested: 522.5 nM) | Kd [2]: 1120 nM | koff [2]: 0.342 s⁻¹ | kon [2]: 305000 M⁻¹ s⁻¹
B2: 02-005, bivalent bispecific chimeric antibody that specifically binds to PD1 and CD20 (bispecific antibody, human IgG1, kappa, L234A L235A)
heavy 1: EVQLVESGGGLVQPGGSLRLSCAASGYTFTSYNMHWVRQAPGKGLEWVGAIYPGNGDTSYNQKFKGRFTISVDKSKNTLYLQMNSLRAEDTAVYYCARVVYYSNSYWYFDVWGQGTLVTVSSASTKGPSVFPLAPSSKSTSGGTAALGCLVKDYFPEPVTVSWNSGALTSGVHTFPAVLQSSGLYSLSSVVTVPSSSLGTQTYICNVNHKPSNTKVDKRVEPKSCDKTHTCPPCPAPEAAGGPSVFLFPPKPKDTLYITREPEVTCVVVDVSHEDPEVKFNWYVDGVEVHNAKTKPREEQYNSTYRVVSVLTVLHQDWLNGKEYKCKVSNKALPAPIEKTISKAKGQPREPQVCTLPPSRDELTKNQVSLSCAVKGFYPSDIAVEWESNGQPENNYKTTPPVLDSDGSFFLVSKLTVDKSRWQQGNVFSCSVMHEALHNHYTQKSLSLSPGK
light 1: DIQMTQSPSSLSASVGDRVTITCRASSSVSYMHWYQQKPGKAPKPLIYAPSNLASGVPSRFSGSGSGTDFTLTISSLQPEDFATYYCQQWSFNPPTFGQGTKVEIKRTVAAPSVFIFPPSDEQLKSGTASVVCLLNNFYPREAKVQWKVDNALQSGNSQESVTEQDSKDSTYSLSSTLTLSKADYEKHKVYACEVTHQGLSSPVTKSFNRGEC
heavy 2: not shown
light 2: QPVLTQPLSVSVALGQTARITCGGNNIGSKNVHWYQQKPGQAPVLVIYRDSNRPSGIPERFSGSNSGNTATLTISRAQAGDEADYYCQVWDSSTAVFGTGTKLTVLQQRQVKPEAWLSSGPSPGPGRLQLVCHVSGFYPKPVWVMWMRGEQEQQGTQLGDILPNANWTWYLRATLDVADGEAAGLSCRVKHSSLEGQDIILYWRGSC
notes: Produced in CHO cells

The remaining lines, values behind:

B3: 02-007, bivalent bispecific chimeric antibody that specifically binds to PD1 and CSF1R (bispecific antibody, human IgG1, kappa, L234A L235A)
heavy 1: B1 heavy 1
light 1: B1 light 1
heavy 2: not shown
light 2: B2 light 2
notes: Produced in CHO cells
Kd [1]: 0.831 nM | koff [1]: 0.000314 s⁻¹ | kon [1]: 378000 M⁻¹ s⁻¹ | binding result [4]: no binding (tested: 1154 nM)

B4: 02-008, bivalent bispecific chimeric antibody that specifically binds to CD20 and CSF1R (bispecific antibody, human IgG1, kappa, L234A L235A)
heavy 1: B2 heavy 1
light 1: B2 light 1
heavy 2: not shown
light 2: QAGLTQPPSVSVAPGQTARITCGGNNIGSKSVHWYQQKPGQAPVLVVYGDSDRPSGIPERFSGSNSGNTATLTISRVEAGDEADYYCQVWDISSDHVVFGGGTQLTVLQRQVKPEAWLSSGPSPGPGRLQLVCHVSGFYPKPVWVMWMRGEQEQQGTQLGDILPNANWTWYLRATLDVADGEAAGLSCRVKHSSLEGQDIILYWRGSC
notes: Produced in CHO cells
Kd [1]: 0.549 nM | koff [1]: 0.000236 s⁻¹ | kon [1]: 429000 M⁻¹ s⁻¹ | Kd [2]: 892 nM | koff [2]: 0.329 s⁻¹ | kon [2]: 369000 M⁻¹ s⁻¹

B5: 02-006, bivalent bispecific chimeric antibody that specifically binds to PD1 and CSF1R (bispecific antibody, human IgG1, kappa, L234A L235A)
heavy 1: QVQLVQSGGGLVQPGGSLRLSCAASGFTFSSYWMYWVRQVPGKGLEWVSAIDTGGGRTYYADSVKGRFAISRVNAKNTMYLQMNSLRAEDTAVYYCARDEGGGTGWGVLKDWPYGLDAWGQGTLVTVSSASTKGPSVFPLAPSSKSTSGGTAALGCLVKDYFPEPVTVSWNSGALTSGVHTFPAVLQSSGLYSLSSVVTVPSSSLGTQTYICNVNHKPSNTKVDKRVEPKSCDKTHTCPPCPAPEAAGGPSVFLFPPKPKDTLYITREPEVTCVVVDVSHEDPEVKFNWYVDGVEVHNAKTKPREEQYNSTYRVVSVLTVLHQDWLNGKEYKCKVSNKALPAPIEKTISKAKGQPREPQVCTLPPSRDELTKNQVSLSCAVKGFYPSDIAVEWESNGQPENNYKTTPPVLDSDGSFFLVSKLTVDKSRWQQGNVFSCSVMHEALHNHYTQKSLSLSPGK
light 1: QPVLTQPLSVSVALGQTARITCGGNNIGSKNVHWYQQKPGQAPVLVIYRDSNRPSGIPERFSGSNSGNTATLTISRAQAGDEADYYCQVWDSSTAVFGTGTKLTVLQRTVAAPSVFIFPPSDEQLKSGTASVVCLLNNFYPREAKVQWKVDNALQSGNSQESVTEQDSKDSTYSLSSTLTLSKADYEKHKVYACEVTHQGLSSPVTKSFNRGEC
heavy 2: not shown
light 2: B4 light 2
notes: Produced in CHO cells
Kd [1]: 0.797 nM | koff [1]: 0.000286 s⁻¹ | kon [1]: 359000 M⁻¹ s⁻¹
